Consider three proteins from article PMC3963902 (PLoS ONE, 2014).

Data set [1] concerns the molecule itself. In words: crystal structure; His-tagged Se-Met labelled LpEst1; 1 M sodium malonate, 0.5% (v/v) Jeffamine ED-2001, 100 mM HEPES pH 7.0, 5 mM DTT; space group I4, four molecules in the asymmetric unit; 2.05 A.
Data set [2] concerns the molecule itself. In words: AUC; sedimentation equilibrium at 12,000 and 18,000 rpm; Gln189Glu mutant 10 uM in McIlvaine buffer pH 5.0 (Na2PO4, citric acid); fit to an ideal single species.
Data set [3] concerns the molecule itself. In words: SEC; analytical gel filtration on Superdex 200 10/300 GL Tricorn; 20 mM Tris-HCl pH 8.0, 0.1 M NaCl, 5 mM DTT, 0.04% sodium azide; size from Kav against standards.

By stoichiometry N is commonly meant the number of molecules, sites or subunits per partner or assembly.

Changes are numbered by the printed parent chain.

B1: His-tagged, selenomethionine (Se-Met) labelled LpEst1 (enzyme, Lactobacillus plantarum WCFS1, UniProt Q88Y25 1-337, looked up)
chain: MPTINSIQTTVNGVVKIVKPFNNDIAGEQFDPHVLQTLTAFKQPAILENDLAALRSGSLTPAIADPVGDAVTVQSRNITALNRTVSVEWLTPQNVINHTVLVYFHGGAFYGGVPGNNTVLLKLVAAKSHCEILNVDYSLAPEAPAPAGILDGLAIFQYLEQRDAETMITVAGDSAGANVIMAATNLNQQLGSNRINQQLLLYPVTAPNADHAGPLWDLAAFPIIDSQRAILTNYHDLFRQLDSIMTDYYVPENFDSHSPLISPLHQENFTMTPPTTIMVGEFDPFRPQAWAYAQRLAAADTATTFIQYQGLNHAFAPLVDQYWQSQDVAQVMAAALI
modifications: selenomethionine (Se-Met labelled)
notes: carboxylesterase LpEst1, Lactobacillus plantarum WCFS1, UniProtKB/Swiss-Prot Q88Y25; 337 residues; Methionines replaced by selenomethionine; incorporation checked by mass spectrometry; also called Se-Met LpEst1; Se-Met labelled LpEst1 esterase
Consider B1, for which the binding result in data set [1] was “binds”.

B2: LpEst1 Gln189Glu mutant (enzyme, Lactobacillus plantarum WCFS1, UniProt Q88Y25 1-337, looked up)
chain: B1 chain with Q189E
notes: carboxylesterase LpEst1, Lactobacillus plantarum WCFS1, UniProtKB/Swiss-Prot Q88Y25; 337 residues; single point mutant Gln189Glu; Made from the wild-type vector with the mutagenic primers printed in the methods; source: recombinant, point mutant of pURI3-TEV-LpEst1; purified (IMAC on a His-Trap FF column plus size exclusion chromatography, last step in McIlvaine buffer pH 5.0)
With B2, in data set [2], the “stoichiometry N” value was 2.

B3: carboxylesterase LpEst1 from Lactobacillus plantarum WCFS1 (wild type, native) (enzyme, UniProt Q88Y25 1-337, looked up)
chain: B1 chain
notes: carboxylesterase LpEst1, Lactobacillus plantarum WCFS1, UniProtKB/Swiss-Prot Q88Y25; 337 residues, about 36.7 kDa; complete protein molecules in the crystal model; The crystals were of His-tagged protein; also called native LpEst1; wild-type protein; source: recombinant, from the expression vector pURI3-TEV-LpEst1
Turning to B3, in data set [3], the “stoichiometry N” value came out at 2.
